What was measured:
[1] = target: T1, β subunit of Mycobacterium smegmatis RNA polymerase (as in the recombinant core m2) (Mycobacterium smegmatis, UniProt P60281 1-1169); assay: cryo-EM structure; HelD and RNAP core mixed at a molar ratio of 3:1, 4 °C, 15 min; complex isolated on Superose 6 Increase in 20 mM Tris-HCl pH 7.8, 150 mM NaCl, 10 mM MgCl2, 1 mM DTT; three states (I, II, III) from one sample; settings: both partners purified
T1 construct: RNA polymerase subunit β, Mycobacterium smegmatis; In the cryo-EM sample it stood on one chain with β′ (β–β′ fusion of m2), within the core enzyme; also called RNAP β; source: E. coli BL21(DE3), purified as part of the RNAP core (β–β′ fusion)
T1 sequence: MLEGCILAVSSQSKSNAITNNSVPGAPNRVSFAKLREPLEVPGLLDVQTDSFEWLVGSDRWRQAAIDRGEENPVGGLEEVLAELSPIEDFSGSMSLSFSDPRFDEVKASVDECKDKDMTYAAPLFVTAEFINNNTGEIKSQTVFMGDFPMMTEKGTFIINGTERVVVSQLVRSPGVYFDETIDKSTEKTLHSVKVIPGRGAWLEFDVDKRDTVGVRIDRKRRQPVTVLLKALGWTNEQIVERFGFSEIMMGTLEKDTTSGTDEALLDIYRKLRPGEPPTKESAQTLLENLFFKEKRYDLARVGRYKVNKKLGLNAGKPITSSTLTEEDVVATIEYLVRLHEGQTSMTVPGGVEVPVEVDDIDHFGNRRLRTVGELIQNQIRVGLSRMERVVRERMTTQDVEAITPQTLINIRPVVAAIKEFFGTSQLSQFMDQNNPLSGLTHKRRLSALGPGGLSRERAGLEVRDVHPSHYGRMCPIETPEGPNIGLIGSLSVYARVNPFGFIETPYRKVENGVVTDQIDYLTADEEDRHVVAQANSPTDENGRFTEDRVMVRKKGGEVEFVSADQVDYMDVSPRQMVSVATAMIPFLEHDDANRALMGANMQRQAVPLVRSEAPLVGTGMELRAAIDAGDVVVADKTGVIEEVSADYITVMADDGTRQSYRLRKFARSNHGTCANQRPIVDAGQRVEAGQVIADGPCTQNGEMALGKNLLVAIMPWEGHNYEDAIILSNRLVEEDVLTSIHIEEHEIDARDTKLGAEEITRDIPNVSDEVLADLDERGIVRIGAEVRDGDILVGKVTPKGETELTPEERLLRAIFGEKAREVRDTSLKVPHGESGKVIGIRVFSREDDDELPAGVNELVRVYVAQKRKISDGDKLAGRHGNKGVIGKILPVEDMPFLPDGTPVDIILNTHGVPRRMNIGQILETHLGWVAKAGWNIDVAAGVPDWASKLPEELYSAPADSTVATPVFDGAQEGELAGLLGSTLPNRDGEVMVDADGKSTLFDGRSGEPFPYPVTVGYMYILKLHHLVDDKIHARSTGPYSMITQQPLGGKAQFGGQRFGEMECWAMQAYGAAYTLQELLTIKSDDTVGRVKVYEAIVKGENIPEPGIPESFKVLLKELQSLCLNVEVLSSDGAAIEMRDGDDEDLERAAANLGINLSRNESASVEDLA

[2] = target: T2, β′ subunit of Mycobacterium smegmatis RNA polymerase (as in the recombinant core m2) (Mycobacterium smegmatis, UniProt A0QS66 1-1317); assay: as above; settings: both partners purified
T2 construct: RNA polymerase subunit β′, Mycobacterium smegmatis; In the cryo-EM sample it stood on one chain with β (β–β′ fusion of m2), within the core enzyme; also called RNAP β′; source: E. coli BL21(DE3), purified as part of the RNAP core (β–β′ fusion)

binding result [1]: binds | binding result [2]: binds
B1: Mycobacterium smegmatis HelD (MSMEG_2174), recombinant (natural protein, UniProt A0QUE0 2-736, looked up)
chain: SGRDYEDELQSERDYVAGLYARLDAERAQSQRRYAAALREHGGTAVERDAEVRALAKDIARLNVADNGLCFGRLDTLDDARLYIGRLGIFDRDNDFEPLLLDWRAPMARPFYVATAANPENMRRRRQFHTLGRKVVDFTDEILGRPTGAEHDATNDAALLAAVNAPRGEGMRDIVATIQAEQDQVIRLDHTGVLVIEGGPGTGKTVVALHRVAYLLYTYRKQMERHGVLVVGPTPAFLDHIGRVLPSLGESDAVFMTPGDFVPGLHVTAEDTPEAAEVKGSLKILDVLKAAVADRQELPSEPIPIDLSDVTMRIDAETAKWARDEARKTGLPHNEARAEFVDVVTYVVTERAVARIGRGWLTRDDKHAWEKMRADVVGELEDHEQFNAALDALWPILTPEDVLAQLYTSHERLRAAGAPECLWRADGEAWTVSDVPLLDELVDLLGRNKAADEAAERERREEEAYAAGVLDLMVDREDLMDDEDHLLAQDLIDAEELADRFKEQDNRELSERAAADREWTYGHVVVDEAQELSEMDWRLLMRRCPRRSFTIVGDLAQRRSPAGARSWGAMLDSYVPGRWVYKSLSVNYRTPAEIMAVAAAVLAEFAPDATPPDSVRACGVAPWARQVTDDDIASAIAEFVSEEAGREGTSVVIGPPDVPGTVPPSETKGLEFDAVLVVEPERILADGPRGAAELYVALTRATQRLGVLYRDALPQALAGLAEGDAAATVEQRTSA
notes: HelD, gene MSMEG_2174 of Mycobacterium smegmatis strain ATCC 700084/mc2 155; the tag is followed by the second amino acid of MSMEG_2174; Codon-optimised synthetic gene in pET302/NT-His; also called Msm HelD; source: E. coli Lemo 21 (DE3), purified (HisTrap, TEV protease, Superdex 75)
